{"source": "paper PMC8461181", "origin": "cited, not measured here", "biological_target": "GnIH (Coturnix japonica) (UniProt Q9DGD4)", "assay": "Scatchard analysis", "data": [{"substance": "GPR147 (from UniProt Q9GZQ6)", "values": [{"measurement": "Kd", "result": 0.752, "unit": "nM"}]}]}
